Here are results for six molecules from paper PMC12867014, “Angiopoietin-like 3 monomers are abundant in human plasma but are unable to inhibit endothelial lipase” (JCI Insight, 2025).

Data set [1] addresses ANGPTL3 of human serum (human (endogenous in serum)). The data set can be described thus: SEC; Superdex 200 of pooled human serum, alone or spiked with conditioned media of recombinant wild-type or L124A human ANGPTL3 (L124A also run without serum); total ANGPTL3, trimeric ANGPTL3 and ANGPTL3/8 complexes in the fractions measured by dedicated immunoassays. For orientation: Size exclusion chromatography separates by hydrodynamic size, large species first.

Data set [2] concerns the target Strep-tagged mouse ANGPTL3 (angiopoietin-like 3), wild-type (mouse). As to the kind of experiment: native gel or EMSA; blue NativePAGE (Bis-Tris 3-12% gels, run at room temperature) of conditioned media, immunoblot with an antibody against ANGPTL3. In general terms: Mobility shift assays separate free from complexed probe on a gel.
The target is the same in data set [3]. As to the kind of experiment: mass photometry; Refeyn TwoMP, ambient temperature, DPBS; ANGPTL3 purified from conditioned media by Strep-TactinXT affinity chromatography.
Data set [4] addresses endogenous ANGPTL3 secreted from Huh7 cells (human (endogenous in Huh7)). As to the kind of experiment: native gel or EMSA; blue NativePAGE (Bis-Tris 3-12% gels, run at room temperature) of conditioned media, immunoblot with an antibody against ANGPTL3.
For data set [5], the target named is mouse ANGPTL3 S220A-R221A (cleavage-resistant) (mouse). The description is as above.
Data set [6] shares this target. The data set can be described thus: mass photometry; Refeyn TwoMP, ambient temperature, DPBS; ANGPTL3 purified from conditioned media by Strep-TactinXT affinity chromatography.
Data set [7] is described as follows: Western blot of conditioned media. The following applies: glycan lost; control: wild type. (A western blot detects proteins with antibodies after separation by electrophoresis.)
Data set [8] deals with the molecule itself. The data set can be described thus: SEC; Superdex 200 of pooled human serum, alone or spiked with conditioned media of recombinant wild-type or L124A human ANGPTL3 (L124A also run without serum); total ANGPTL3, trimeric ANGPTL3 and ANGPTL3/8 complexes in the fractions measured by dedicated immunoassays.

In the case of “ANGPTL3 of human serum (natural protein)”, the stoichiometry N in data set [1] came out at 3.

For “Strep-tagged mouse ANGPTL3 (angiopoietin-like 3), wild-type (natural protein)”, the stoichiometry N in data set [2] and in data set [3] was 3 in each case. Further, the percent present as homotrimer in data set [3] was found to be 58%.

For “endogenous ANGPTL3 secreted from Huh7 cells (natural protein)”, in data set [4], the stoichiometry N came out at 3.

“mouse ANGPTL3 S220A-R221A (cleavage-resistant) (natural protein)”: the stoichiometry N in data set [5] and in data set [6] was 3 in each case.

B1: ANGPTL3: M116A-S117A (protein)
parent chain: MHTIKLFLFVVPLVIASRVDPDLSSFDSAPSEPKSRFAMLDDVKILANGLLQLGHGLKDFVHKTKGQINDIFQKLNIFDQSFYDLSLRTNEIKEEEKELRRTTSTLQVKNEEVKNMSVELNSKLESLLEEKTALQHKVRALEEQLTNLILSPAGAQEHPEVTSLKSFVEQQDNSIRELLQSVEEQYKQLSQQHMQIKEIEKQLRKTGIQEPSENSLSSKSRAPRTTPPLQLNETENTEQDDLPADCSAVYNRGEHTSGVYTIKPRNSQGFNVYCDTQSGSPWTLIQHRKDGSQDFNETWENYEKGFGRLDGEFWLGLEKIYAIVQQSNYILRLELQDWKDSKHYVEYSFHLGSHETNYTLHVAEIAGNIPGALPEHTDLMFSTWNHRAKGQLYCPESYSGGWWWNDICGENNLNGKYNKPRTKSRPERRRGIYWRPQSRKLYAIKSSKMMLQPTT
For the molecule B1, the expression_or_secretion result in data set [7] is given as “no change”.

B2: recombinant wild-type human ANGPTL3 (His-tagged) (natural protein, UniProt Q9Y5C1 17-460, looked up)
chain: SRIDQDNSSFDSLSPEPKSRFAMLDDVKILANGLLQLGHGLKDFVHKTKGQINDIFQKLNIFDQSFYDLSLQTSEIKEEEKELRRTTYKLQVKNEEVKNMSLELNSKLESLLEEKILLQQKVKYLEEQLTNLIQNQPETPEHPEVTSLKTFVEKQDNSIKDLLQTVEDQYKQLNQQHSQIKEIENQLRRTSIQEPTEISLSSKPRAPRTTPFLQLNEIRNVKHDGIPAECTTIYNRGEHTSGMYAIRPSNSQVFHVYCDVISGSPWTLIQHRIDGSQNFNETWENYKYGFGRLDGEFWLGLEKIYSIVKQSNYVLRIELEDWKDNKHYIEYSFYLGNHETNYTLHLVAITGNVPNAIPENKDLVFSTWDHKAKGHFNCPEGYSGGWWWHDECGENNLNGKYNKPRAKSKPERRRGLSWKSQNGRLYSIKSTKMLIHPTDSESFE
notes: angiopoietin-like 3 (ANGPTL3), human, secreted into the medium; also called WT human ANGPTL3; wild-type trimeric ANGPTL3; source: HEK293T, transient transfection (Fugene6), conditioned media
Consider B2, for which, in data set [8], the “stoichiometry N” value stood at 3.

As a reminder, the stoichiometry N is the number of molecules, sites or subunits per partner or assembly.
